Results as given in publication PMC4843776 (Biochemistry, 2016).
Where two headings read alike, the source gives them in different places. Where no end group is shown, it is not given here.

Columns and labels:
[1] = biological target: Paxillin LD4 peptide LD4 (Homo sapiens) (UniProt P49023); settings: cited from earlier work
[2] = biological target: Paxillin LD4 peptide LD4 (Homo sapiens) (UniProt P49023); settings: cited from earlier work; remark: listed apart in the source
[3] = biological target: paxillin LD4 LD4 motif peptide (Homo sapiens) (UniProt P49023); settings: cited from earlier work
[4] = biological target: paxillin LD4 LD4 motif peptide (Homo sapiens) (UniProt P49023); settings: cited from earlier work; remark: listed apart in the source
[5] = biological target: Pyk2-FAT-LD1 (Homo sapiens, UniProt Q14289); settings: X-ray, 2.0 Å (4XEV); 0.5 mM protein, 2 mM leupaxin-LD4 peptide
[6] = system: Pyk2-FAT; assay: NMR titration / chemical shift perturbation of 15N-labeled Pyk2-FAT; assay type: binding, human
[7] = system: Pyk2-FAT domain; settings: ref [36]; cited from earlier work
[8] = biological target: FAT domain of human Pyk2 (residues 871-1005) (Homo sapiens, UniProt Q14289); assay: ITC of leupaxin LD peptides and leupaxin^1-105 binding to Pyk2-FAT
[9] = biological target: T1, FAT domain of human Pyk2 (residues 871-1005) (human, UniProt Q14289 871-1005); assay: ITC
[10] = biological target: T1, FAT domain of human Pyk2 (residues …); assay: ITC; remark: listed apart in the source
[11] = biological target: T1, FAT domain of human Pyk2 (residues …); assay: SEC-MALS
[12] = ITC, 20 mM MES, pH 6.2, 15°C, two-site sequential model, first site, duplicate
[13] = ITC, 20 mM MES, pH 6.2, 15°C, two-site sequential model, second site, duplicate

Paxillin LD4 peptide LD4 (Homo sapiens), sequence (P49023 263-282): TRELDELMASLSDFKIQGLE

Pyk2 FAT H2/H3 site (from UniProt Q14289)
Kd [1]: 8 µM

Pyk2 FAT H1/H4 site (from UniProt Q14289)
Kd [2]: 46.3 µM

Pyk2 FAT (871-1005), H2/H3 site (from UniProt Q14289)
Kd [3]: 8 µM

Pyk2 FAT (871-1005), H1/H4 site (from UniProt Q14289)
Kd [4]: 46.3 µM

KTSAAAQLDELMAHLTEMQ [leupaxin-LD4]
Binding site in crystal structure with Pyk2-FAT-LD1 [5]: binds at the H2/H3 site | CSP differences between leupaxin-LD1 and leupaxin-LD4 ([6]; 4 equivalents peptide, 15N-labeled Pyk2-FAT, 20 mM MES, pH 6.2, 305K): residues Arg 918 and Ala 951 from H2/H3 show a high magnitude of CSP | NMR site preference on Pyk2-FAT ([6]; NMR titrations, LD1 for H1/H4, LD4 for H2/H3, respectively): strong preference for H1/H4 and H2/H3 sites of Pyk2-FAT, respectively | Binding behaviour with Pyk2-FAT (in words) [7]: compete equally for H2/H3 | Stoichiometry of binding (peptide to Pyk2-FAT) ([8]; ITC, 20 mM MES, pH 6.2, 15°C): 2 to 1 stoichiometry | ΔG, first site [8, 12]: -7.6 ± 0.3 kcal/mol | ΔH, first site [8, 12]: -3.0 ± 0.2 kcal/mol | −T.ΔS, first site [8, 12]: -4.6 ± 0.6 kcal/mol | ΔG, second site [8, 13]: -6.0 ± 0.1 kcal/mol | ΔH, second site [8, 13]: 0.5 ± 0.3 kcal/mol | −T.ΔS, second site [8, 13]: -6.5 ± 0.4 kcal/mol | Higher affinity at the preferred Pyk2-FAT binding site ([8]; ratio of the two site KDs (LD1 prefers H1/H4, LD4 prefers H2/H3)): ~19 fold

B1: leupaxin-LD4 peptide (human leupaxin; residues 86-104) (peptide, UniProt O60711 86-104, looked up)
peptide: KTSAAAQLDELMAHLTEMQ
KD first site [9]: 2.2 ± 1 µM | KD second site [9]: 33 ± 7.2 µM | dH first site [9]: -3 ± 0.2 kcal/mol | dH second site [9]: 0.5 ± 0.3 kcal/mol

B2: leupaxin^1-105 (human leupaxin; residues 1-105) (domain or fragment, UniProt O60711 1-105, looked up)
chain: MEELDALLEELERSTLQDSDEYSNPAPLPLDQHSRKETNLDETSEILSIQDNTSPLPAQLVYTTNIQELNVYSEAQEPKESPPPSKTSAAAQLDELMAHLTEMQA
Kd [10]: 0.6 ± 0.2 µM | dH [10]: -2.5 ± 0.5 kcal/mol | stoichiometry N [10]: 1

B3: leupaxin-LD1 peptide (human leupaxin; residues 1-20) (peptide, UniProt O60711 1-20, looked up)
peptide: MEELDALLEELERSTLQDSD
dH first site [9]: -2 ± 0.2 kcal/mol | dH second site [9]: 1.6 ± 0.3 kcal/mol

B4: leupaxin^1-151 (human leupaxin; residues 1-151) (domain or fragment, UniProt O60711 1-151, looked up)
chain: MEELDALLEELERSTLQDSDEYSNPAPLPLDQHSRKETNLDETSEILSIQDNTSPLPAQLVYTTNIQELNVYSEAQEPKESPPPSKTSAAAQLDELMAHLTEMQAKVAVRADAGKKHLPDKQDHKASLDSMLGGLEQELQDLGIATVPKGH
stoichiometry N [11]: 1
